System: MS2 coat protein
Assay: apparent KD of MS2 coat protein; designed switch direction (-1 OFF switch, 1 ON switch): 1; higher = weaker reporter binding
Procedure, shortened: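 Apparent KD, taken as the median over clusters for each design, was obtained by curve-fitting normalised cluster fluorescence. Designed RNA switches had been transcribed on Illumina chips by stalled E. coli RNA polymerase and titrated with SNAP-549-labelled MS2 coat protein, doubling from 0.7 or 1.5 nM to 3 µM.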

[1] = input ligand: microRNA oligo, concentration not stated
[2] = Eterna round: R95, input ligand: FMN 200 uM
[3] = Eterna round: R95, input ligand: microRNA oligo, concentration not stated
[4] = Eterna round: R95, input ligand: none

Sequence	apparent KD of MS2 coat protein [1]	apparent KD of MS2 coat protein (input ligand: FMN 200 uM)	apparent KD of MS2 coat protein (input ligand: none)	apparent KD of MS2 coat protein [2]	apparent KD of MS2 coat protein [3]	apparent KD of MS2 coat protein [4]
GUACAGAUCACAGGAUAUCACGUCGUUUAGACGUGAGAAGGGUGAUCACACAUGAAUAUUAAUACAUGAGGAUCACCCAUGUAC [SSNG1/16-A3] (Eterna round: R96, puzzle: Same State NG 1)	22.1 nM	–	–	–	–	–
GGAUGAUUAACAGGAUAUCAUUUGUAAAUUCGAUGAGAAGGGUUGAUUACUUACACGACGUGUUACAUGAGGAUCACCCAUGUU [SameState NG1 #6] (Eterna round: R96, puzzle: Same State NG 1)	385 nM	372 nM	548 nM	–	–	–
UGAGCCGGCACUGAGGAUAUUCAUAAUAAAACAUGAGGAUCACCCAUGUAGGCCAGAAGGCCUUGGGAGAAGGCAGGUCGGCUCU [Mat - Same State 2 - Mod of UCT - D70] (puzzle: Same State 2)	–	–	–	13.8 nM	142 nM	292 nM
AAAGGAUGAUGUUACAUGAGGAUCACCCAUGUUGUGAUAACUAAGGAUAUGUGUUAAACCAGUUAAUAGAAGGUAGGAUCAUAA [AK SSNG3-V2-5] (Eterna round: R96, puzzle: Same State NG 3)	77.1 nM	182 nM	112 nM	–	–	–
GCCGGCUGGUGAGGAUAUGGCACCUUAUUGGUGCCAGAAGGCAUGUCAAUUGACAUGAGGAUCACCCAUGUGUUGUCGUUGGCG [salish99_SSNG1_r04_609] (Eterna round: R96, puzzle: Same State NG 1)	72.4 nM	698 nM	742 nM	–	–	–
AAUAUACAUGAGGAUCACCCAUGUUAGUAAAUGACAGGAUAUCGAAUAAAUAAAUAAUAACGAGAAGGGUCUAAUA [JMF's solution 3] (puzzle: Same State 1)	–	–	–	15.9 nM	30.3 nM	20.8 nM
GGGAGAGGCGCAGGAUAUGGUGAGGAUCACCCACUAGAAGGGUGCACAUGAGAAUCGGACAUGAGGAUCACCCAUGUUUGGCGC (Eterna round: R96, puzzle: Same State NG 1)	121 nM	393 nM	565 nM	–	–	–
UUCCCAUCGGGAGGAUAUGGUGCCUUAUUGGUGCUAGAAGGUCCAACAUGAGGAUCACCCAUGUGGGAGUGGUCUAAUGACCUC [SS NG10LRO06] (Eterna round: R96, puzzle: Same State NG 1)	204 nM	338 nM	355 nM	–	–	–
ACGCAGCUGGGUGAGGAUAUCGGUGGUACAACAUGAGGAUCACCCAUGUCCGAAGCUCGGACCUCCGAGAAGGCGCCCGGCUGCG [Soinraesar Omei Mod 2] (puzzle: Same State 2)	–	–	–	17.4 nM	24.8 nM	57.8 nM
UUGAUUAACGUAGGAUAUCGACCUACAUGAGGAUCACCCAUGUCUUUGUAUAGUUUUUUUUGUUACGAGAAGGACGUUAUGUAU [JR_SSNG2_Sub067] (Eterna round: R96, puzzle: Same State NG 2)	100 nM	78.6 nM	106 nM	–	–	–
UUAAUGAAGUAAGGAUAUACAUGAGGAUUUCUCGUAGAAGGUACUAUACAUGAGGAUCACCCAUGUGCCGGUCCGUAGACUGGA [JL SSNG1 1.05] (Eterna round: R96, puzzle: Same State NG 1)	297 nM	342 nM	607 nM	–	–	–
UUAAGCCACGGGCAGGAUAUGUAUUAAAAUACAUGAGGAUCACCCAUGUGCAGGUGUAACACCUGACAGAAGGGCCAAUCGAGGC [Soteed - 6] (puzzle: Same State 2)	–	–	–	36.6 nM	182 nM	284 nM
CCCGUCUACAGAAAGGUAGAUGGGAAUGUACAUGAGGAUCACCCAUGUUAAUAUGAGUUUGUUGAUAAUUAUGAAUU [Modxample 50 - Jieux - Sensor for bsa-mir-208a] (Eterna round: R96, puzzle: Sensor for hsa-mir-208a)	18.9 nM	19.7 nM	24.4 nM	–	–	–
AGAAAUCAACGCGCACAUGAGGAUCACCCAUGUGCUCAAGCACAGGAUAUCGGCACAAGACAGGCCGAGAAGGGUGGAGCACGA [Eternabot solution 3] (Eterna round: R96, puzzle: Same State NG 3)	19.7 nM	14.7 nM	24.1 nM	–	–	–
UGGAUCUAGGCUUGCCUGGGUCCAUGUUGACAUGAGGAUCACCCAUGUGUAUUUUUUUUGCUUUUUGUUUGUCAACA [JL A Humble Attempt mod 4] (puzzle: Sensor for hsa-mir-208a)	–	–	–	31.5 nM	16.7 nM	34 nM
ACGCAGCUGGGUGAGGAUAUCGGUGGUAAAACAUGAGGAUCACCCAUGUCCGAAGCUCGGACUUCCGAGAAGGCGCCCAACUGCA [Ercelama] (puzzle: Same State 2)	–	–	–	12.9 nM	55.1 nM	70.9 nM

Sequence	apparent KD of MS2 coat protein [1]	apparent KD of MS2 coat protein (input ligand: FMN 200 uM)	apparent KD of MS2 coat protein (input ligand: none)	apparent KD of MS2 coat protein [2]	apparent KD of MS2 coat protein [3]	apparent KD of MS2 coat protein [4]
UCUUGGUUUUUGCUCGUUUUUUGUGUUGAACAUGAGGAUCACCCAUGUAUUGUACGGUCCGGUUUGGUAAUGGUCCA [JMF 9] (puzzle: Sensor for hsa-mir-208a)	–	–	–	55.7 nM	41.8 nM	63.6 nM
UCGAGCGUACUUGCAGACAUGAGGAUCACCCAUGUAAAUGGGAAGGAUAUGGUACCGUUUCGGUACCAGAAGGUCCUAAGUGUU [salish99_SSNG3_r04_303] (Eterna round: R96, puzzle: Same State NG 3)	146 nM	616 nM	493 nM	–	–	–
GCUCGAAUCAAAACCAACAUGAGGAUCACCCAUGUAUGUUGGUAGGAUAUCGUUUGCUUUGCAAACGAGAAGGGCCAAACGAGC [SameState NG3 #3] (Eterna round: R96, puzzle: Same State NG 3)	121 nM	69.2 nM	127 nM	–	–	–
UGAAGAUCCAUAGGAUAUCCGACACAUGAGGAUCACCCAUGUCAACCAAACGCAGCUUCGGCCGUGGAGAAGGAUGGAGCUGUG [Eternabot solution 3] (Eterna round: R96, puzzle: Same State NG 2)	41.5 nM	72.4 nM	76.4 nM	–	–	–
CUCAAACAUGAGGAUCACCCAUGUGUUGUCAUGGGAGGAUAUCUAAGUUCAUUGUAUUCGGGAGAAGGCCUAUGUC [× ×•×ª×• ×ž×“×™× ×” × ×—×ª-09] (puzzle: Same State 1)	–	–	–	–	362 nM	–
AAUCGUUUGAUAGGAUAUCGUUAUACAUGAGGAUCACCCAUGUUUACCACGCUGGUUUUUCGUACCGAGAAGGAUUCUGAUGAU [JL JR sub007 mod 6] (Eterna round: R96, puzzle: Same State NG 2)	20.2 nM	30.5 nM	27.5 nM	–	–	–
UUGGUUCUCGUAGGAUAUGUAGGAUAUGCCUACAUGAGGAUCACCCAUGUUCGCAUGGCAGAAGGACAGAAGGACGAUCACCAU [pwkr ssNG2 2FMN + 1F5.17] (Eterna round: R96, puzzle: Same State NG 2)	136 nM	–	–	–	–	–
AGCUAUUACGCAGGAUAUAGGGACAUGAGGAUCACCCAUGUGUACAUGAGUAAAUGUGAUCACGUCUAGAAGGGUGUACUAACA [SameState NG2 #37] (Eterna round: R96, puzzle: Same State NG 2)	326 nM	684 nM	321 nM	–	–	–
GCUCGAUGAGCGUUUUACAUGAGGAUCACCCAUGUUCGUGGGCAGGAUAUUUACGUGCGGAGUGUAGAGAAGGGCCCAUCGAGC [SameState NG3 #68] (Eterna round: R96, puzzle: Same State NG 3)	391 nM	71.3 nM	674 nM	–	–	–
ACAUGAGGAUCACCCAUGUCGCUGGUAUCGGAUACGUAUUACGAGGAUAUGCCGAGGAGUUCCGAGUAGAAGGUGUAAUACAUG [Eternabot solution 40] (Eterna round: R96, puzzle: Same State NG 3)	90.3 nM	178 nM	102 nM	–	–	–
UGGCUCAGACGAGGAUAUAUGUGGUCACAUGAGGAUCACCCAUGUCUCGAGCUUCGGCUCGAGGCAUAGAAGGUGUCUGAGCCU [SSNG2/5-C3] (Eterna round: R96, puzzle: Same State NG 2)	33.5 nM	132 nM	23.1 nM	–	–	–
GCUCGAUGAGCUGUCUACAUGAGGAUCACCCAUGUAGAUGGGCAGGAUAUUUACGUGCUUUAUGUAGAGAAGGGCCCAUCGAGC [SameState NG3 #78] (Eterna round: R96, puzzle: Same State NG 3)	123 nM	15.5 nM	169 nM	–	–	–
ACAUGAGAUAGAGGAUAUGUUGUACCUACAUGUGACAUGAGGAUCACCCAUGUGGUAAGUAUGAUACAGAAGGCUAAGAUAUGU [Equivalance 60 - Jieux - Same State NG 2] (Eterna round: R96, puzzle: Same State NG 2)	19.1 nM	16.5 nM	30.1 nM	–	–	–
GUCAGGCAAGCUUUUUUCUCGUAGUGUAAACAUGAGGAUCACCCAUGUGCUCGCCCUGGAUCUUUGGAUCCCAGAAA [Anedraus] (puzzle: Sensor for hsa-mir-208a)	–	–	–	40.2 nM	21 nM	41.9 nM
UGUCCAGCCUGAGCUGGACAAAAGCAUGUACAUGAGGAUCACCCAUGUUCAUGUACAAGCUUUUUGCUCGUCUUGCA [salish99_208a_r3_109x] (puzzle: Sensor for hsa-mir-208a)	–	–	–	637 nM	14.5 nM	492 nM
